Read-outs that look alike come from different tables or passages of the source.

In assay [1] the target is T1, human PD-1 expressed on cells (UniProt Q15116 25-288). The experiment in a line: FACS ligand competition (PD-L1 Fc).
The target in assay [2] is T1, human PD-1 expressed on cells. The experiment in a line: FACS binding. On the technique in general: A flow cytometer gives signals particle by particle.
Assay [3] concerns the target recombinant PD-1 extracellular domain (ECD) protein (UniProt Q15116 25-170). The experiment in a line: SPR.
The target in assay [4] is T1, human PD-1 expressed on cells. The assay is described as follows: FACS competition with PD-L1 Fc.
Assay [5] has the same target. The assay is described as follows: FACS binding. The source holds these as a separate data set.
Assay [6] shares this target. The assay is described as follows: FACS binding. The source holds these as a separate data set.

T1 sequence (Q15116 25-288): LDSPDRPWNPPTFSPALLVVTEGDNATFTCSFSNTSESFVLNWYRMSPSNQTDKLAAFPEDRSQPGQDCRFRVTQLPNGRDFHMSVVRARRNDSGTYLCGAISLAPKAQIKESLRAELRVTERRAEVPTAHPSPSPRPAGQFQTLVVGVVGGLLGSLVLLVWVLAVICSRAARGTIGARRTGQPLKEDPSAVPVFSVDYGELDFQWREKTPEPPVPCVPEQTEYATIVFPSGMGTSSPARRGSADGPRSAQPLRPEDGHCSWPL
recombinant PD-1 extracellular domain (ECD) protein, sequence (Q15116 25-170): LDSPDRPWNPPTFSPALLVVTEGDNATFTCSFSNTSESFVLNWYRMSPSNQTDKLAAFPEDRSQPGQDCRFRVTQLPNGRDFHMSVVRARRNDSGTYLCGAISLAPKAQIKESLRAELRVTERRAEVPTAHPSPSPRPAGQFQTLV

B1: AS25117_HCAb (antibody, V domains shown)
VH: EVQLAESGGGSVQAGGSLRLSCVISGTSISPDCMGWFRQAPGKKREAVMSIFTNTGSTRYGDSVKGRFTSSQGNAKNTLYLQMDSLKLDDTATYYCAARYTGGDCFNLEPLAWRFWGQGTQVTVSS
Regarding B1, the IC50 – broadly, the concentration at which inhibition is half-maximal – in assay [1] worked out at 2.06 nM. The half-maximal effective concentration (EC50) – broadly, the concentration needed to bring the measured effect to its halfway point – in assay [2] came out at 3.22 nM.

B2: AS24984_HCAb (antibody, V domains shown)
VH: QVHLMESGGGSVPSGGSLRLSCAVSGSGYSYSRGCFAWFQQRPGKEREGVAIINMDGHTRYSDSVQGRFIISQDKAKNTLHLQMNTLRPDDTAMYYCAYDRSQCYVLSDRLRLPGTFSDWGQGTQVTVSS
In assay [1], B2 showed a concentration for half-maximal inhibition (IC50) of 4.59 nM. For the same molecule, the response in assay [2] was half-maximal at 7.22 nM (EC50).

B3: AS25222_HCAb (antibody, V domains shown)
VH: QIQLVESGGGSVQAGGSLRLSCAVTGISISPDCMGWFRQAPGKKREAVATIFTNTASTRYGDSVKGRFTSSQGNGKNTLYLQMDSLNVDDTATYYCAARYTGGNCFNLEPLAWHFWGQGTQVTVSS
Turning to B3, in assay [1], the 50% inhibitory concentration (IC50) was 1.66 nM. In assay [2], this molecule gave an EC50 of 4.59 nM.

B4: AS25457_HCAb (antibody, V domains shown)
VH: QVQLVESGGGSVQAGGSLRLSCAVSGISISPDCMGWFRQAPGKKREAVATIFTNTRSTRYGDSVKGRFTSSQGNAKNTLYLQMDSLKLDDTATYYCAARYTGGDCFNLEPVAWRFWGQGTQVTVSS
As to B4, the 50% inhibitory concentration (IC50) in assay [1] was 2.44 nM. Also, in assay [2], the midpoint of the response, the EC50, lay at 4.04 nM.

B5: AS15899 sdAb (VHH)
VHH: QVQLVESGGGSVQAGGSLRLSCAASGYTAGSLCMGWFRQAPGKEREGVAAIYTGGGSTYYADSVKGRFTISQDNAKNTVYLQMNSLKPEDTAQYYCGAGSREDYCDRGYIYDHWGQGTQVTVSS
As for B5, in assay [3], the Kd – broadly, the free concentration of one partner at which half of the binding sites on the other are occupied at equilibrium, for simple one-to-one binding – turned out to be 3.22 nM.

B6: AS25037_HCAb (antibody, V domains shown)
VH: EVQLAESGGGSVQAGGSLKLSCLASQWISSDCGMAWYRQAPGKERELVSRISSDDTTTYADSVKGRFTISQDSAKNTLYLQMNKLKTEDTGVYYCAAEAKSTITSLCYPLNYWGQGTQVTVSS
Molecule B6 had an IC50 in assay [1] of 6.58 nM. The same molecule returned an EC50 in assay [2] of 6.62 nM.

B7: AS06962 sdAb (VHH)
VHH: QVHLVDSGGGLVQPGGSLRLSCAASGSITSRNTMGWYRQVPGKQRELVALIATFVTHYADSVKGRFTISRDNARKMVFLEMNSLQPEDTGAYYCYVDVSPYWGRGTQVTVSS
With B7, in assay [3], the Kd is 0.454 nM. Also, the 50% inhibitory concentration (IC50) in assay [4] came out at 193 nM. In assay [5], this molecule returned an EC50 of 79.2 nM.

B8: A31543 sdAb (VHH)
VHH: QVQLVESGGGKVQPGGSLRLSCAASGGTLDYYAIGWFRQAPGKEREAVSCISSSDGSTYYADSVKGRFTISRDNAKNTVYLQMNSLKPGDTAVYHCATDRACGSSWLGAESWAQGTQVTVSS
B8 had a 50% inhibitory concentration (IC50) in assay [4] of 21.1 nM. In addition, in assay [5], the EC50 stood at 41.2 nM.

B9: AS15892 sdAb (VHH)
VHH: QIQLVESGGGSVQAGGSLRLSCAASGFTDSSYCGAWFRQVPGKEREGVAIIDRYGGTMYKDSVKGRFTISKDTAKNILYLQMNSLKLEDTAMYYCAAAEYRGSSCDAESGYWGQGTQVTVSS
With B9, in assay [3], the Kd is 2.67 nM.

B10: AS15881 sdAb (VHH)
VHH: QVQLVESGGGSVQAGGSLRLSCAASGFTDSSYCGAWFRQVPGKEREGVAIIDRYGGTMYKDSVKGRFTISKDTAKNILYLQMNSLKLEDTAMYYCAAAEYRGSSCDAESGYWGQGTQVTVSS
In the case of B10, the dissociation constant (Kd) in assay [3] was determined as 2.31 nM.

B11: AS15883 sdAb (VHH)
VHH: QVHLMESGGGSVQAGGSLTLSCAASVFTDSNYCMAWFRQVPGKEREGVAIIDRYGGTMYKDSVKGRFTISKDTAKNILYLQMNSLKLEDTAMYYCAAAGYRGSSCDADSGYWGQGTQVTVSS
As for B11, the Kd in assay [3] was determined as 2.78 nM.

B12: AS15872 sdAb (VHH)
VHH: QVQLVESGGGLVQPGGSLTLSCAASGFTFSTAAMSWVRQVPEEGLEWVASIDSSGSRTYYAGSVKGRFTISRDNAKNTLYLQLNSLKAEDTAMYYCAKDHMSWLPRGQGTQVTVSS
Turning to B12, in assay [3], the dissociation constant (Kd) came to 14.5 nM.

B13: AS25115_HCAb (antibody, V domains shown)
VH: QVHLVESGGASVQAGGSLRLSCAATAYTASNYCMGWFRQSPGKEREAVASINDDGVTSYADSVKGRFTISQDSAKKTLYLQMNRLKPEDTAMYYCAATPDGYCYAERLSRWRYEFWGQGTQVTVSS
For B13, the 50% inhibitory concentration (IC50) in assay [1] was 2.15 nM. Further, the 50% effective concentration (EC50) in assay [2] stood at 4.06 nM.

B14: AS25435_HCAb (antibody, V domains shown)
VH: QVQLVESGGGSVQAGGSLRLSCAATAYTASFYCMGWFRQAPGKEREAVASINDDGVTMYADSVKGQFTISQDSATKTLYLQMNRLKPEDTAMYYCAATPEGYCYAERLSTWRYTFWGQGTQVTVSS
B14: the half-maximal inhibitory concentration (IC50) in assay [1] was 2.7 nM. In assay [2], this molecule showed an EC50 of 4.91 nM.

B15: AS25067_HCAb (antibody, V domains shown)
VH: QVHLMESGGGAVQTGGSLRLSCAVSGISISPDCMGWFRQAPGKKREAVTTIFANTGSARYGDSVKGRFTSSQGNAKNTLYLQMDSVKLDDTGTYYCAARFTGGDCFDHQPLAWRFWGQGTQVTVSS
In assay [1], B15 showed an IC50 of 3.51 nM. The response in assay [2] was half-maximal at 4.96 nM (EC50).

B16: AS25396_HCAb (antibody, V domains shown)
VH: QVHLMESGGGSVQAGGSLRLSCVVSGISISPDCMGWFRQAPGKKREAVATIFTNTRRTRYGDSVKGRVTSSQGNAKNTLYLKMDNLRHDDTATYYCAARYTGGDCFNLDPLSWRFWGQGTQVTVSS
In assay [1], B16 registered an IC50 of 1.34 nM. In assay [2], this molecule had an EC50 of 3.84 nM.

B17: AS25071_HCAb (antibody, V domains shown)
VH: EVQLAESGGGSVQSGGSLRLSCAVSGSGYSYSRGCFAWFQQRPGKEREGVAIINSDGHTAYSDSVQGRFIISQDKAKNTLYLQMNSLKPDDTAMYYCAYDRSQCYVLRDRLRLPDTFTDWGQGTQVTVSS
Molecule B17 showed an IC50 in assay [1] of 2.41 nM. Moreover, the EC50 in assay [2] turned out to be 4.74 nM.

B18: AS25156_HCAb (antibody, V domains shown)
VH: EVQLVESGGGSVQSGGSLRLSCAVSGSGYSYSRGCFAWFQQRPGKEREGVAIINSDGHTRYSDSVQGRFIISQDKAKNTLYLQMNSLKPDDTAMYYCAYDCSQCYVLRDRLRLPDTFTDWGQGTQVTVSS
Turning to B18, the EC50 in assay [6] and in assay [2] was 9.18 nM each time. Also, the half-inhibitory concentration (IC50) in assay [1] worked out at 6.04 nM.

B19: AS25149_HCAb (antibody, V domains shown)
VH: QVQLVESGGGSVQSGGSLKLSCAVSGSGYSYSRGCFAWFQQRPGKEREGVAIINSDGHTRYSDSVQGRFIISQDKAKNTLYLQMNSLKPDDAAMYYCAYDRNQCYVLLDRLRLPGTFSDWGQGTQVTVSS
B19 gave an IC50 in assay [1] of 8 nM. In assay [2], this molecule had an EC50 of 10.7 nM.

B20: AS25164_HCAb (antibody, V domains shown)
VH: EVQLVESGGGSVQSGGSLRLSCAVSGSGYSYNRGCFAWFQQRPGKEREGVAIINSDGHTTYGDSVQGRFIISQDKAKNTLDLQMNSLKPDDTAMYYCAYDRNQCYVLRDRLRLPDTFTDWGQGTQVTVSS
B20 gave an IC50 in assay [1] of 3.25 nM. The molecule also displayed a concentration for a half-maximal effect (EC50) in assay [2] of 6.15 nM.

B21: AS25064_HCAb (antibody, V domains shown)
VH: QVQLVESGGGSVQAGGSLRLTCAATGYSWRPDCMGWYRQAAEKEREGVAVIDADGITSYADAAKGRFTISRDNNKITLYLQMLKPDDTGMYVCVVGWRVSSGGNCQFNDYWGQGTQVTVSS
With B21, the half-inhibitory concentration (IC50) in assay [1] stood at 2.91 nM. The molecule also came in with a concentration for a half-maximal effect (EC50) in assay [2] of 5.46 nM.

B22: AS25119_HCAb (antibody, V domains shown)
VH: QVQLVESGGGSVQAGGPLRLTCAATGYSWRPDCMGWYRQAAEKEREGVAVIDADGITSYADAAKGRFTISRDNNNITLYLQMLKPDDTGMYVCVIGWRVSSGGNCQFNDYWGQGTQVTVSS
Consider B22, for which, in assay [1], the concentration for half-maximal inhibition (IC50) came out at 1.57 nM. In addition, the EC50 in assay [2] came out at 3.29 nM.

The values are drawn from US20200347135A1 (published 2020).
